# Experiment: yeast display, Sf9 membrane polyspecificity reagent, FACS + sequencing; frameworks hold sequencing errors
# Procedure, shortened: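 Galactose induction of a Saccharomyces cerevisiae BJ5465 synthetic nanobody display library ran 36–48 hours. The cells were then stained for 1 hour at 4 °C with 10% biotinylated, detergent-solubilized Sf9 membrane reagent, pulled down on streptavidin microbeads and FACS-sorted into low and high (top ~1%) gates on expression and reagent-binding fluorescence. Labels for polyreactivity follow the gate of origin.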
row,Sequence,polyreactivity (PSR sort gate)
1,QVQLVESGGGLVQAGGSLRLSCAASGGTFSDNAMGWYRQAPGKERELVADIDIGGITYYADSVKGRFTISRDNAKNTVYLQMNSLIPEDTAVYYCAAVTTYYYYDVTDYAYEYYYWRQGTQVTVSS,low polyreactivity
2,QVQLVESGGGLVQAGGSLRLSCAASGRTFAPNAMGRSRQAPGKERELVAAITSIGTRTYYADSVKGRFTISRDNAKNTVYLHKNSLKTEVTAVYYCNKKRNADYDYWGQGTQVTVSS,low polyreactivity
3,QVQLVESGGGLVQAGGSLRLSCAASGRTFRWYAMGWYRQAPGKERELVAAITSDGSTYYADSVKGRFTISRDNAKNTVYLQMNSLKPEDTAVYYCNAAGRYAFPFGYNYWGQGTQVTVSS,high polyreactivity
4,QVQLVESGGGLVHAGGRLRLSCAASGRTLAPYAMGWYRQAPGKERELVADIDRGGGSTYYADSVTGRFTISRDNAKNTVYLQMNSVKPEDTAVYYCYVDETGVLVAYTFDYWGQGTQVTVSS,low polyreactivity
5,QVQLVESGGGLVQAGGSLRLSCAASGSTFVRYAMGWYRQAPGKERELVAAISGSGGRTYYADSVKGRFTISRDNAKNTVYLQMYSLKPEDTAVYYCATSTAGGRQTVSQYRYYWGQGTQVTVSS,high polyreactivity
6,QVQLVVSGGGLVQAGGSLRLSCAASGSTFYAYAMGWYRQAPGKERELVARIRWRGGRTYYADSVKGRFTISRDNAKNTVYLRMNSLKPEDTAVYYCNRGYYSYYGRYYYWGQGTQVTLSS,high polyreactivity
7,QVLLVESGGGLVQAGGSLRVSCAASGFTFYGYAMGWYRQAPGKERELVAARSSTGGRTYYADSVKGRFTISRDNAKNTVYLQMNSLKPEDTAVYYCNKVWRFAEHNYWGQGTQVTVSS,high polyreactivity
8,QVQLVESGGGLVQAGGSLRLSCAASGFTFGGNVMGWYRQAPGKERELVAAISSSGGSTYYADSVKGRFTISRDNAKNTVYLQMNSLKPEDTAVYYCAATTYGWWGYQYDYWGQGTQVTVSS,high polyreactivity
9,QLQLVESGGGLVQAGGSLRLSCAASGLIFRYYTMGWYRQAPGKERELVATITRGDSTYYADSVKGRFTISRDNAKNTVYLQMNSLKPEDTAVYFCAAAGWSRVGYWLKYDYWGQGTQVTVSS,high polyreactivity
10,QVQLVESGGGLVQAGGSLRLSCATSGRIFGTNAMGWYRQAPGKERELVADITSGGSTNYADSVKGRFTISRDNAKNTVYVQMNSLKPEDTAVYYCAADVIGDLRWYRDEYWGQGTQVTVSS,low polyreactivity
11,QVQLVESGGGLVQAGGSLRLSCAASGRIFAHYAMGWYRQAPGKERELVADITDGGSTYYADSVKGRFTISRDNAKNTVYLQMNSLKPEDTAVYYVATRRGPWPSEYDSWGQGTQVTVSS,low polyreactivity
12,QVQLVESGGGLVQAGGSLRLSCAASGITFSSYAMGWYRQAPGKERELVAGITRRGGITYYADSVKGRFTISRDNAKNTVYLQMNSLNPEDTAVYYCAATHRFRSGSPDGGYGYWGQGTQVTVSS,high polyreactivity
13,QVQLVESGGGLVHAGASLRLSCAASGLTFRKYAKGWYRQAPGKERELVAAITGSGGRTYYADSVKGRFTISRDNAKNTVYLQMNSLQPEDTAVYYCAADDYFHDDYWGQGTQVTVSS,high polyreactivity
14,QVQLVESGGGLVQEGGSLRLSCAASGSIFDVYAMGWSRQGPGKERELVAAISSSGSTYYADSVKGRFTISRDNAKNTVYLQMNSLKPEDTAVYYCAAVQADDDDYYYWGQGTQVTVSS,low polyreactivity
15,QVQLVESGGGLVQAGGSLRLSCAASGRIFLSYAMGVYRQAPGKERELVAGITGTGGRTYYADSVKGRFTISRDNAKNTVYLLMNSLIPEDTAVSYCAAQRRDNIDPKHYYWGQGTQVTVSS,low polyreactivity
16,QVQLVESGGALVQAGGSLRLSCAASGSTSVDYTMGWYRQAPGNDKDLVAAIDYNGDSTYYADSEKGRFTISRDNAKNTFYLQMNSLKPEDTAVYYCAADVWTLDPEVYDYWGPGTQVTVSS,low polyreactivity
17,QVQLVESGGGLVQAGGSLRLSCAASGRIFWGNAMGWYRQAPGKERELVAAITRSGGSTYYADSVKGRFTISRDNAKNTVYLQMNSLKPEDTAVYYCAARRNYINFRYTLDYYYWGQGTQVTVSS,high polyreactivity
18,QVKLVESGGGLVQAGGSLRLSFAASGSIFFIYAMGWYRQETGKERELVASINSGGTTSNADSVKGRFTISRDNAKNTVYLQLNSLKPADTAVYYCATRGIVGILDSLSEEYYYWGQGTQVSVSS,low polyreactivity
19,QVQLVESGGGLVQAGGSLRISCAASGITFPYYAMGWYRQAPGKERELVADITSGGSTNYADSVKGRFTISRDNAKNTVYLQMNSLKPEDTAVYYCAADWYVIYDYWGQGTQVTVSS,low polyreactivity
20,QVPLVESGGGLVQAGGSLRISCAASGSTIVGYSMGWYRQAHGKERELVADITSGGGITYYADSVKGRFTISRDNAKNTVYLQMNSLKPEYSAVYYCAARVVEIFHWAGDYWGQGTQVTVSS,low polyreactivity
21,QVQLVESGGGLVQAGGSLRLSCAASGSIFRIYAMGWYRQAPGQESELVAAINAGGGRTYYADSVKGRFTISRDNAKNTVYLQMNSLKPEDTAVYYCAARHTEYRQESLYYWGQGTQVTVSS,low polyreactivity

row,Sequence,polyreactivity (PSR sort gate)
1,QVQLVESGGGLVQAGGSLRLSCAASGITFFRYTMGWYRQAPGKEREFVADISRSGDTTYYADSVKGRFTISRDNAKNSVYLQMNSLKPEDTAVYYCARLTRSGEYGYWGQGTQVTVSS,high polyreactivity
2,QVQLVESGGGLVQAGGSLRLSCAASGSTFGSYTMGWYRQPPGKERELVAAINWSGGNTYYADSVKGRFTISRDNAKNTVYLQMNSLKPEDTAVYYCAAAFYIYGFEGDYWGQGTQVTVSS,low polyreactivity
3,QVQLVESGGGLVQAGGSLRLSCAASGSIFYENTMGWYRQAPGKEREFVAAISRSGGSTYYADSEKGRFTISRDNAKNTVYLQMNSLKPEDTAVYYCAAKSRRYHHEYYYWGQGTQVTVSS,high polyreactivity
4,QVQLVESGGGLVQAGGSLRLSCAASGFTFRYYAMGWYRQAPGKERELVADITWSGTRTYYADSVKGRFTISRDNAKNTVYLQMNSLKPEDTAVYYCAKVTWVRGSYYRNKSSIYDYWGQGTQVTVSS,high polyreactivity
5,QVHLVESGGGLVQAGGSLRLSCAASGYIFTGYAMGCYRQAPGKERELVATINTDGDSTYYADSVKGRFTISRDNAKNTVYLQMNSLKPEDTAVYYCNKRLTQAYDDQVGYDYWGQGTQVTVSS,low polyreactivity
6,QVQLVESGGVLVLVGGSLRLSCADSGMTFYWYTMGWYRQAPGKERELVAAITRRSARTYYADSVKGRFSISRDNAKNTVYLQMNILKPEDTAVYYCGAAGRPGGYVQRDSWGQGTQVTVSS,high polyreactivity
7,QVQLVESGGGLVQAGGSLRLSCAASGITFQWNAMGWYRQAPGKERELVAAISSGTSTYYADSVKGRFTISRDNAKNTVYLQMNSLKPEDTAVYYCNAVKSWGHPGRYYWGQGTQVTVSS,high polyreactivity
8,QVQLVESGGGIVQAGGSLRLSCAASGFTFEYYAMGWYRQAPGKERELVADITSGGTYYADSVKGRFTISRDNAKNTVYLQMNSLKPEDTAVYYCAADFGQPYTYYAKENYWGQGTQVTVSS,low polyreactivity
9,QVQLVESGGGLVQAGGSLRLSCAASGATFRIDAMGWYREAPGKERELVAAIARGGTSTYYADSVKGRFTISRDNAKNTVNLQMNSLKPEDTAVYYCAKRDQDRTFPNGYWGQGTKVTVSS,high polyreactivity
10,QVQLVESGGGLVQAGGSLRLSCAASGITFRSYAMGWYRQAPGKDRELVAAISRTGGRTYYADSVKGRFTISRDNAKNTVYLQMNSLKAEDSAVYYCAAGGYSPYSLVGYDYWGQGTQVTVSS,high polyreactivity
11,QVQLVESGGGLVQAGGSLRLSCAASGRIFTRYAMGWYRQAPGKERELVAAINSGGSTKYADSVKGRFTISRDNAKHTVYLQMNSLKPEDTAVYYCNACYWWYGYDYWGQGTQVTVSS,high polyreactivity
12,QVQLVESGGGLVQAGGSLRLSCAASGSIFQWYAMGWYRQAPGKERELVAAINWSSGSTYYADSVKGRFTISRDIAKNTVYLQMNSLKPEETAVYYCAARIGYGTSYLRRIYYWGQGTQVTVSS,high polyreactivity
13,QVQLVESGGGLVQAGGSLRLSCAASGRIQYNAMGWYRQAPGKEREFVAAISWSGGTTYYADSVKGRFTISRDNAKNTVYLQMNSLKPEDTAVYYCATPYTHWGQGTQVTVSS,high polyreactivity
14,QVQLVESGGGLVQAGCSLRLSCAASGSTFRWYAMGWYRPAPGKEREFVAAITSSGGSTYYADSVKGRFTISRDNAKNTVYLQMNSLKPEDTAVYYCNRRYQPYSYDYWGQGTQVTVSS,high polyreactivity
15,QVQLVESGGALVQAGGSLRLSCAASGISFSWYAMGWYRQAPGKEREFVAAISRGGTSTYYADSVKGRLTISRDNAKNTVYLQMNSLKPEDTAVSYCAVQWLYPYDYWGQGTQVTVSS,high polyreactivity
16,QVQLVESGGGLVQAGGSLRLSCADSGYIFYYNAMGWYRQAPGKERDLVATITSGGSTYYADSLKGRFTISRDNAKNTVYLQMNSLKPEDTAVYYCAAPSQSIRYTYIRSYYWGQGTQVTVSS,low polyreactivity
17,QVQLVETGGGLVQAGGSLRLSCAASASIFTANAMGWYRQAPGKERELVAAISRSGGRTYYADSVKGRFTISRDNAKNTVYLQMNSLKPEDTAVYYCAAVYVYPSTSRYDFWGQGTQVTVSS,high polyreactivity
18,KVQLVESGGGLVQEGGSLPLSCAASGRTFDYNTMGWYRQAPGKERELVAAISSRGDSTYYADSVKGLFTISRDKAKNTVYLQMNSLNPEDTAVYYCAARYYPGRGFGYGYWGQGTQVTVSS,high polyreactivity
19,QVQLVESGGGLVQAGGSLRLSCAASGLTFHRYAMGWYRQAPGKERELVAAINYSGGRTYYADSVKGRFTISRDNAKNTVYLQMNSLKPEDTAVYYCAAPRASGYYWGQGTQVTVSS,high polyreactivity
20,QVQLVESGGGLVQAGGSLRLSCAASGFIFTRNVMGWYRQAPGKERELVAGITYTSGSTYYADSVKGRFTISRDNAKNTVYLQMNSLKPEDTAVYYCAAEITRHYVFGDDYWGQGTQVTVSS,low polyreactivity

# Reference: the nanobody polyreactivity screen of Harvey et al. (2022)
